{"source": "patent US20190345446A1", "about": "(BROAD INSTITUTE, published 2019)", "key": {"[1]": {"target": "T1, STAT3 (mouse, endogenous) (mouse, UniProt P42227 2-770)", "T1 construct": "Endogenous intracellular protein", "T1 sequence (P42227 2-770 limits assumed)": "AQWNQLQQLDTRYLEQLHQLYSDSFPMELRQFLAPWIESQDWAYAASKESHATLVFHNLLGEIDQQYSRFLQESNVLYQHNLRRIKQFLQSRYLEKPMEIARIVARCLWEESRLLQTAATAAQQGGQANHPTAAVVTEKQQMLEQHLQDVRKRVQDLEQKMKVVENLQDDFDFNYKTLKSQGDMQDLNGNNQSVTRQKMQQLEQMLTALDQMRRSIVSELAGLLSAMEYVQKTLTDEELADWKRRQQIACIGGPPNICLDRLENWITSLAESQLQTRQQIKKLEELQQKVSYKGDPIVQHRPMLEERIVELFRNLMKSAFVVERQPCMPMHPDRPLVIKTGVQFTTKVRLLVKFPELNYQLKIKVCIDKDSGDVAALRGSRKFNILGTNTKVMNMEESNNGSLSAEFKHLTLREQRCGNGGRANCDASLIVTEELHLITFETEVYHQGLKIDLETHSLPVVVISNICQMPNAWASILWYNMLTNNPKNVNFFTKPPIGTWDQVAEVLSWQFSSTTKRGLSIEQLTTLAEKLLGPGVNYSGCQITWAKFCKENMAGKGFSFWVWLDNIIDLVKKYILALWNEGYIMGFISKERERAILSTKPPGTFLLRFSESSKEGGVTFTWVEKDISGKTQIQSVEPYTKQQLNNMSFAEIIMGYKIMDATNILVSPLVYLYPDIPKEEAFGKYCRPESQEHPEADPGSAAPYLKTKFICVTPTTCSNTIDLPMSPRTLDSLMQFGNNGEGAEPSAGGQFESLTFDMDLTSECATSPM", "experiment": "co-immunoprecipitation with anti-Fas antibody and Protein G beads from EL4 mouse T cell line, Western blot", "method": "(§1) For DISC assembly, 1*10⁸ EL4 cells or 5-7*10⁷ MACS sorted primary mouse CD4 cells were stimulated for 15 minutes with either biotinylated anti-Fas antibody (Jo2, 2.5 μg/ml) and streptavidin ([…], Thermo Scientific) or with multimerized recombinant human Fas ligand (aa 139-281) fused at the N-terminus to mouse ACRP30headless (aa 18-111) and a FLAG-tag (MegaFasL, Adipogen) at a final concentration of 100 ng/ml as indicated in the figure legends. MegaFasL was dissolved in H₂O that was used as vehicle. For immunoprecipitation (IP) experiments, cells were then washed twice with ice-cold PBS, lysed in ice-cold IP buffer containing 30 mM Tris HCL, 1% Triton-X100, 150 mM NaCl, 2 mM EDTA, 10% glycerol, 1 mM PMSF, phosphatase inhibitors (HALT, Thermo Scientific) and protease inhibitors (Roche). Immuoprecipitation was performed immediately after lysis using protein G magnetic Dynabeads (Life Technologies) with three consecutive washes with IP buffer. For phosphorylation studies, sorted naïve T cells were stimulated with the cytokines as indicated, then washed with PBS, and either lysed in IP buffer or cytoplasmic and nuclear fractions were extracted using NE-PER reagents (Thermo Scientific) following the manufacturer's protocol. […]"}, "[2]": {"target": "T2, STAT4 (mouse, endogenous) (mouse, UniProt P42228 1-749)", "T2 construct": "Endogenous intracellular protein", "T2 sequence (looked up)": "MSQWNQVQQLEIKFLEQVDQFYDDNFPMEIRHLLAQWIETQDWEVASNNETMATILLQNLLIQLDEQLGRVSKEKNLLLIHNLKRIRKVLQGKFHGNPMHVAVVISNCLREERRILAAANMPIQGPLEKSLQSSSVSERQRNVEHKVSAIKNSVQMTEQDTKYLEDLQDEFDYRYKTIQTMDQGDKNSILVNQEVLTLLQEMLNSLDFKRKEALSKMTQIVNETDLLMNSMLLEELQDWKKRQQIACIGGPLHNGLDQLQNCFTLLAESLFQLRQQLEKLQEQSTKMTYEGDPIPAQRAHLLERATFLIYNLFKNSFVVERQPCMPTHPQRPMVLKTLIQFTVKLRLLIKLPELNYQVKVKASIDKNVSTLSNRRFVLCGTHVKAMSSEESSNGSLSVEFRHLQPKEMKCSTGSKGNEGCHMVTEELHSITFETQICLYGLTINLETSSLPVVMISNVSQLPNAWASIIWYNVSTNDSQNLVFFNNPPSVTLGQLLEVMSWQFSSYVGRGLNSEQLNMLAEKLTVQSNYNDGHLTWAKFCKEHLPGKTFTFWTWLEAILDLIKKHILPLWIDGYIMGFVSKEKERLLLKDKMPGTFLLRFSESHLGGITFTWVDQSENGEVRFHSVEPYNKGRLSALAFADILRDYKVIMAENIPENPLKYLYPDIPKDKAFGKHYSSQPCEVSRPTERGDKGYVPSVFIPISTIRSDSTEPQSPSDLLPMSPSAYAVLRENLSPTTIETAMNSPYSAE", "experiment": "co-immunoprecipitation with anti-Fas antibody and Protein G beads from EL4 mouse T cell line, Western blot", "method": "as §1"}}, "data": [{"binder": "Fas (mouse death receptor Fas, endogenous in EL4 cells and primary mouse CD4+ T cells) (receptor, UniProt P25446 22-327, looked up, whole, on cells; Endogenous protein; also called Fas receptor; CD95) QGTNSISESLKLRRRVRETDKNCSEGLYQGGPFCCQPCQPGKKKVEDCKMNGGTPTCAPCTEGKEYMDKNHYADKCRRCTLCDEEHGLEVETNCTLTQNTKCKCKPDFYCDSPGCEHCVRCASCEHGTLEPCTATSNTNCRKQSPRNRLWLLTILVLLIPLVFIYRKYRKRKCWKRRQDDPESRTSSRETIPMNASNLSLSKYIPRIAEDMTIQEAKKFARENNIKEGKIDEIMHDSIQDTAEQKVQLLLCWYQSHGKSDAYQDLIKGLKKAECRRTLDKFQDMVQKDLGKSTPDTGNENEGQCLE", "values": [{"measurement": "binding result", "setting": "[1]", "value": "no binding"}, {"measurement": "binding result", "setting": "[2]", "value": "no binding"}]}]}
